B1: Vhh-4 (VHH)
VHH: EVQLLESGGGLVQPGGSLRLSCAASGFTFAHETMVWVRQAPGKGLEWVSHIPPDGQDPFYADSVKGRFTISRDNSKNTLYLQMNSLRAEDTAVYHCALLPKRGPWFDYWGQGTLVTVSS
notes: also called DOM1h-131-206
B2: Vhh-2 (VHH, not shown: small tags and cut ends)
VHH: EVQLLESGGGLVQPGGSLRLSCAASGFTFSQYRMHWVRQAPGKSLEWVSSIDTRGSSTYYADPVKGRFTISRDNSKNTLYLQMNSLRAEDTAVYYCAKAVTMFSPFFDYWGQGTLV
notes: it is placed last only by convention; also called Recombinant human anti-TNFRSF1A single domain antibody

Legend:
[1] = molecular target: T1, TNFR1 on cells (human, UniProt P19438 30-455); assay: cell-based or functional assay
T1 sequence: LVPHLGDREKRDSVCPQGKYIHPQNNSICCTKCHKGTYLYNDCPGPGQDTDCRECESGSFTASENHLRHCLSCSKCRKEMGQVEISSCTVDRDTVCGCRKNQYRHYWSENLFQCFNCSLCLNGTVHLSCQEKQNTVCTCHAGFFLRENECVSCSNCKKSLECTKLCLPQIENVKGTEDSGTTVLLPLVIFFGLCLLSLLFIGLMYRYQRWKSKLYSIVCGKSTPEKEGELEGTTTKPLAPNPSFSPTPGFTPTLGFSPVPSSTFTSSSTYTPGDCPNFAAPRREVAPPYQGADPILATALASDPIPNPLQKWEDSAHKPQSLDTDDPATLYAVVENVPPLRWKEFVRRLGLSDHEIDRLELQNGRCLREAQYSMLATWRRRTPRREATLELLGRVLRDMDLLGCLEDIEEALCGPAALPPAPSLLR

[2] = molecular target: T2, extracellular domain of TNFR-1 (human, UniProt P19438 30-211); assay: SPR (Biacore), Vhh on TNFR1 extracellular domain
T2 construct: The construct limits, tag, supplier and species are not restated there; also called TNFR1 extracellular domain; tumor necrosis factor receptor-1 (TNFR1)
T2 sequence: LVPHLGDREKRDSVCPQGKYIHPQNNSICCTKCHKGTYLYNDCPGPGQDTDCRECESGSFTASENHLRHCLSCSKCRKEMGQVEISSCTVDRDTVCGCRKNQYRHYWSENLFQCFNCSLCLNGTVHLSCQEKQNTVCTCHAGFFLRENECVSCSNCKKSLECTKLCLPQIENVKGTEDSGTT
Method: (§1) Each of Vhh 1-4 subsequently was tested in binding studies using the surface plasmon resonance (SPR) method (Sciences GL. Biacore Assay Handbook. General Electric Company (2012); and Richter et al. (2019) MAbs 11:166-177). Competition assays of Vhh inhibition of TNF-a binding to TNFR1 extracellular domain also were performed as described in Richter et al. (2019).

[3] = molecular target: T2, extracellular domain of TNFR-1; assay: competition assay, Vhh inhibition of TNF binding to TNFR1; competitor TNF-a
Method: as §1

Binder	TNF Dependent Bioassay (IC50): VCAM [1]	Kd [2]	IC50 [3]
B1	0.3 nM	0.00066 nM	~1 nM
B2	3 nM	1000 nM	
